The values that follow are results of earlier work, collected in PMC3428507.

One may read the Kd as the constant that tells how readily two partners part at equilibrium.

The data set deals with Pf1 MBD (Homo sapiens) (UniProt Q96QT6).
Chain of Pf1 MBD (Homo sapiens) (Q96QT6 200-241): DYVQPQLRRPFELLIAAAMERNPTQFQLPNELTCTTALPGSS

Chain of MRG15 MRG (Q9UBU8 188-362): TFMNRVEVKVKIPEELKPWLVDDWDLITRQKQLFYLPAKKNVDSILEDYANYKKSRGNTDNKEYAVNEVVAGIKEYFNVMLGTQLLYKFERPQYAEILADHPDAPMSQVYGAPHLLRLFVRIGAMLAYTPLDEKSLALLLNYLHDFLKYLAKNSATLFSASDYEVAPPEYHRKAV

Regarding MRG15 MRG (from UniProt Q9UBU8), the Kd was 15 nM.
